In the DeepSol protein solubility set:

experiment: soluble on expression in E. coli; label from the status in PepcDB or PDB records

Q: For “MKPKLAQWKELLAARHKKENDEEKEEEKPDGRPVTDVPYADVWREYGAKPYWFAGDYCLIRETVYPLDYQHGRYRLGALYEVHERWQEAPFSHPLSCRGFAVRDLFFFDTETMGLSSGAGNIMFLLGHARILGDFVTIRQHLLPYPGAEVALYQSFLSDVDYTTLVTYNGKAFDWPRLKTRHALVRNMVPKLPAFGHFDLYHAARRLWKDKLDSLRLSEVERHILHVERGDDVPGFLAPMMYKEFLQTPHPDRLMPVLRHNERDVLSLIALYIHLSVQLLEADRLADPKEQLAAARWFEAVGETAAARGVYEEASGKGAKEAQAAKWQLSLLYRKEKRYEEAALLWRDLLIHGNGYWKAKAGLELAKVYEHYFRDAAEAHRYAVMAYEAWRSLARMSRQHSEKEEAEWRRRLARLERKKNG”, which “soluble on expression in E. coli” value is on record?
A: not soluble

Q: For “MSLIEVDLLNNDNLKKKTSGFTILSGDSTDGHGGYGAGVLSLDNVTPVFVDPEEERAFVDLGALHARSEVEKRIKFLPNKEEVPNGKLYWLVWVTIDSKKEGPYYAGVAGCEMTVDREIRRGYKSMPEHVNKMDKSIKGKIVVDDMDERSKRILGEYLKSFNEDMWKRSEPELREKLLGEKEGHHHHHH”, which “soluble on expression in E. coli” value is on record?
A: soluble

Q: With “MGHHHHHHENLYFQSHLYFQSHMYHDRRRTGFRQYETYMKQKQSADWQLDELLEELEALETQLNSSNGGDQLLLGVSGIPASSSRENVKSISTLPPPPPALSYHQTPQQPQLLHHHNNHLGYQNGIHQITSINSAASSCSSPDGDSAFGDSSSTESSNNRCRNSAFSSNDSCRDSLNTPSPTQVSPRNGELNAEEAKAQKIRQALEKMKEAKVTKIFVKFFVEDGEALQLLIDERWTVADTLKQLAEKNHIALMEDHCIVEEYPELYIKRVYEDHEKVVENIQMWVQDSPNKLYFMRRPDKYAFISRPELYLLTPKTSDHMEIPSGDQWTIDVKQKFVSEYFHREPVVPPEMEGFLYLKSDGRKSWKKHYFVLRPSGLYYAPKSKKPTTKDLTCLMNLHSNQVYTGIGWEKKYKSPTPWCISIKLTALQMKRSQFIKYICAEDEMTFKKWLVALRIAKNGAELLENYERACQIRRETLGPASSMSAASSSTAISEVPHSLSHHQRTPSVASSIQLSSHMMNNPTHPLSVNVRNQSPASFSVNSCQQSHPSRTSAKLEIQYDEQPTGTIKRAPLDVLRRVSRASTSSPTIPQEESDSDEEFPAPPPVASVMRMPPPVTPPKPCTPLTSKKAPPPPPKRSDTTKLQSASPMAPAKNDLEAALARRREKMATMEC” as the sequence, how does the “soluble on expression in E. coli” value read?
A: not soluble

Q: With “MGSDKIHHHHHHMKAYAFGFPKIGEKREFKKALEDFWKGKITEEQFEEEMNKLRMYMVENYRKNVDVIPSNELSYYDFVLDTAVMVGAVPERFGEYRGLSTYFDMARGGKALEMTKFFNTNYHYLVPEIETEEFYLLENKPLEDYLFFKSKGIETAPWVIGPFTFLYLSKRNGEWIRRPNQMEKLLESLVSVYKEVFEKLVENGCKEILVNEPAFVCDLEKAHWDLILNVYRELSEFPLTVFTYYDSVSDYEACVSLPVKRLHFDFVSNEENLKNLEKHGFPEDKKLVAGVINGRQPWKVDLRKVASLVEKLGASAISNSCPLFHLPVTLELENNLPGGLKEKLAFAKEKLEELKMLKDFLEGKTFDLPNVSFEDFAVDLQAVERVRNLPEDSFRREKEYTERDRIQRERLNLPLFPTTTIGSFPQTPEVRKMRSKYRKGEISKEEYEAFIKEQIKKAIELQEEIGLDVLVHGEFERTDMVEFFAEKLNGIATTQNGWVLSYGSRCYRPPIIYGTVTRPEPMTLKEITYAQSLTEKPVKGMLTGPVTIMSWSYYREDIPEREIAYQIALAINEEVKDLEEAGIKIVQIDEPAFREKAPIKKSKWPEYFEWAINAFNLAANARPETQIHAHMCYSDFNEIIEYIHQLEFDVISIEASRSKGEIISAFENFKGWIKQIGVGVWDIHSPAVPSINEMREIVERVLRVLPKELIWINPDCGLKTRNWDEVIPSLRNMVALAKEMREKFES” as the sequence, how does the “soluble on expression in E. coli” value read?
A: not soluble

Q: Which “soluble on expression in E. coli” value does the source give for “DLILPFYKAGKVSFYQGDLDVLINFLEPDVLVNAANGDLRHVGGVARAIDVFTGGKLTKRSKEYLKSSKAIAPGNAVLFENVLEHLSVLNAVGPRNGDSRVEGKLCNVYKAIAKCDGKILTPLISVGIFKVKLEVSLQCLLKTVTDRDLNVFVYTDQERVTIENFFNG” here?
A: soluble

Q: For “MALTSFLPAPTQLSQDQLEAEEKARSQRSRQTSLVSSRREPPPYGYRKGWIPRLLEDFGDGGAFPEIHVAQYPLDMGRKKKMSNALAIQVDSEGKIKYDAIARQGQSKDKVIYSKYTDLVPKEVMNADDPDLQRPDEEAIKEITEKTRVALEKSVSQKVAAAMPVRAADKLAPAQYIRYTPSQQGVAFNSGAKQRVIRMVEMQKDPMEPPRFKINKKIPRGPPSPPAPVMHSPSRKMTVKEQQEWKIPPCISNWKNAKGYTIPLDKRLAADGRGLQTVHINENFAKLAEALYIADRKAREAVEMRAQVERKMAQKEKEKHEEKLREMAQKARERRAGIKTHVEKEDGEARERDEIRHDRRKERQHDRNLSRAAPDKRSKLQRNENRDISEVIALGVPNPRTSNEVQYDQRLFNQSKGMDSGFAGGEDEIYNVYDQAWRGGKDMAQSIYRPSKNLDKDMYGDDLEARIKTNRFVPDKEFSGSDRRQRGREGPVQFEEDPFGLDKFLEEAKQHGGSKRPSDSSRPKEHEHEGKKRRKE”, which “soluble on expression in E. coli” value is on record?
A: soluble

Q: Which “soluble on expression in E. coli” value does the source give for “MKVLEYRFAIAPMFHFIANKSMEAGLHVCDGHAKQTVQLFMNDAVSEKGKKRIGAIQYEGSNDYTAKEPCMVNWRFERALLPDGLKQDLEAITAFRRDQNEGTAINPNAQSIAFKFEALTDAAKETIEAITAVLQKHARC” here?
A: not soluble

Q: For “GPGSMQQPTAQEEQYVNVPVPLTGEEKGWQEVAPNRYIRYEQFGGSDAEMNFIVNLFTAELTEPYSSFTYQYFVFGWPDLCITAFGVESETKPDNSVVGEKVGAVVSRVTRKGAGMPLRGYVAMFAVVPKFRGYRLGSRLVSLTVELMRAKGCDEVYLETPTSNVRALGLYLNLGFAKTKYLPRYYLDHSDAVRLKLWLKDAIPKSVPETASTAGVEKA”, which “soluble on expression in E. coli” value is on record?
A: soluble

Q: For “MIKKLPLFIIVCLLAISSQALAETELEIEGLEGPLLSNVEAYISGIPEEDYSVSLRFQARLQESITDALKALGYYQSTTTFVVEGDTSDRTLLVNIDAGQPVIIYVSDIVISGEAAADEDFINAVDNSGLNLGQVINHGRYESLKSTLQNLALRKGYFDGDFTTNRLEIAPGRHQAIVRIHYDSGKRYSFGETSIDGSQIEEKRVRSIIPFQAGDPYLASQVGELNQYLSNTEWFSSVYVEPDIDAVGKTYQLPMKVHLSPQVRNQLETSIGYATDVGARGKIRWKKPWLNPEGHSLDTALSISKPEQEATISYKIPLEQVLKDYYVVKYGLKNVDNNDTDSLESNLAFERHWVYDSGWHRTIYTRFLYEEFTQGVQDGTAWLVLPGISFSKSRSRGGTMPMWGDKKAFTIEATDQALTSDVKLLRLQAQGAIVRSIGENHRGVARADIGAIYTDDFYKLPPSIRFFAGGDNSIRGYGYEEVSPKDSEGYLTGGQYMATASLEYQYRVVGNWWVATFVDYGDAWLDTPDWKMGTGVGIRWASPVGPVRLDFAWGLDAEPGDEFKIHFTLGPEVLEHHHHHH”, which “soluble on expression in E. coli” value is on record?
A: soluble

Q: Which “soluble on expression in E. coli” value does the source give for “GPGSMSNEEVFRISNVSGYSVEIPLATAKELLGMLNMDQVFRAARAGTDDTDESGVDDGDTEPVKAEGMDYGKEVLDVVRAYALLPPDKRTSSIPRPLTQDLRSVVYAGEMELVEKAEREDYLVDLLNCALFLRFSQLSALCAAYMAVRIDEIAKAAPDIMEGAERIRKFLHMQNEWTEEEMGHLRREMEYAKSVDPNVY” here?
A: soluble

Q: Which “soluble on expression in E. coli” value does the source give for “MGSSHHHHHHSSGRENLYFQGHMFFTDWEGPWILTDFALELCMAVFNNARFFSNLSEYDDYLAYEVRREGYEAGYTLKLLTPFLAAAGVKNRDVERIAELSAKFVPDAEKAMATLQERWTPVVISTSYTQYLRRTASMIGVRGELHGTEVDFDSIAVPEGLREELLSIIDVIASLSGEELFRKLDELFSRSEVRKIVESVKAVGAGEKAKIMRGYCESKGIDFPVVVGDSISDYKMFEAARGLGGVAIAFNGNEYALKHADVVIISPTAMSEAKVIELFMERKERAFEVLSAVSIPETEIYIMENSDFGEVLEKSKRMRVRLRGLAGELGGS” here?
A: soluble
